Source: patent US20260250371A1 (ULTRAGENYX PHARMACEUTICAL, published 2026)
Changes are numbered by the printed parent chain. Numbers in names are those of the source. Where “and” joins values, the source holds several entries; their conditions need not be identical. Equal entries are not always repeated.

B1: Burosumab (antibody, human IgG1, kappa, V domains shown)
VH: QVQLVQSGAEVKKPGASVKVSCKASGYTFTNHYMHWVRQAPGQGLEWMGIINPISGSTSNAQKFQGRVTMTRDTSTSTVYMELSSLRSEDTAVYYCARDIVDAFDFWGQGTMVTVSS
VL: AIQLTQSPSSLSASVGDRVTITCRASQGISSALVWYQQKPGKAPKLLIYDASSLESGVPSRFSGSGSGTDFTLTISSLQPEDFATYYCQQFNDYFTFGPGTKVDIKR
notes: Recombinant human IgG1 kappa; also called burosumab-twza; parental burosumab
B2: UGX117 (antibody, human IgG1, kappa, V domains shown)
VH: B1 VH
VL: B1 VL with V34I
notes: also called LC:V34I
B3: UGX127 (antibody, human IgG1, kappa, V domains shown)
VH: B1 VH
VL: B1 VL with S52E
notes: also called UGX017; LC:S52E
B4: UGX130 (antibody, human IgG1, kappa, V domains shown)
VH: B1 VH
VL: B1 VL with S53E
notes: also called LC:S53E
B5: UGX131 (antibody, human IgG1, kappa, V domains shown)
VH: B1 VH
VL: B1 VL with S53F
notes: also called LC:S53F
B6: UGX133 (antibody, human IgG1, kappa, V domains shown)
VH: B1 VH
VL: B1 VL with S53Y
notes: also called UGX022; LC:S53Y
B7: UGX135 (antibody, human IgG1, kappa, V domains shown)
VH: B1 VH
VL: B1 VL with N92D
notes: also called LC:N92D
B8: UGX137 (antibody, human IgG1, kappa, V domains shown)
VH: B1 VH
VL: B1 VL with N92F
notes: also called UGX035; LC:N92F
B9: UGX140 (antibody, human IgG1, kappa, V domains shown)
VH: B1 VH
VL: B1 VL with D93F
notes: also called UGX039; LC:D93F
B10: UGX146 (antibody, human IgG1, kappa, V domains shown)
VH: B1 VH
VL: B1 VL with Y94F
notes: also called LC:Y94F
B11: UGX148 (antibody, human IgG1, kappa, V domains shown)
VH: B1 VH with T30F
VL: B1 VL
notes: also called HC:T30F
B12: UGX151 (antibody, human IgG1, kappa, V domains shown)
VH: B1 VH with N31F
VL: B1 VL
notes: also called HC:N31F
B13: UGX152 (antibody, human IgG1, kappa, V domains shown)
VH: B1 VH with N31Q
VL: B1 VL
notes: also called HC:N31Q
B14: UGX153 (antibody, human IgG1, kappa, V domains shown)
VH: B1 VH with N31R
VL: B1 VL
notes: also called HC:N31R
B15: UGX159 (antibody, human IgG1, kappa, V domains shown)
VH: B1 VH with S59E
VL: B1 VL
notes: also called HC:S59E
B16: UGX160 (antibody, human IgG1, kappa, V domains shown)
VH: B1 VH with S59F
VL: B1 VL
notes: also called UGX066; HC:S59F
B17: UGX161 (antibody, human IgG1, kappa, V domains shown)
VH: B1 VH with S59I
VL: B1 VL
notes: also called HC:S59I
B18: UGX162 (antibody, human IgG1, kappa, V domains shown)
VH: B1 VH with S59L
VL: B1 VL
notes: also called HC:S59L
B19: UGX164 (antibody, human IgG1, kappa, V domains shown)
VH: B1 VH with S59T
VL: B1 VL
notes: also called HC:S59T
B20: UGX165 (antibody, human IgG1, kappa, V domains shown)
VH: B1 VH with S59V
VL: B1 VL
notes: also called HC:S59V
B21: UGX166 (antibody, human IgG1, kappa, V domains shown)
VH: B1 VH with S59Y
VL: B1 VL
notes: also called UGX068; HC:S59Y
B22: UGX178 (antibody, human IgG1, kappa, V domains shown)
VH: B1 VH with N31F, S59F
VL: B1 VL
notes: also called HC:N31F, HC:S59F
B23: UGX188 (antibody, human IgG1, kappa, V domains shown)
VH: B1 VH with S57E, S59D
VL: B1 VL
notes: also called HC:S57E, HC:S59D
B24: UGX190 (antibody, human IgG1, kappa, V domains shown)
VH: B1 VH with S59T, V101L
VL: B1 VL
notes: also called HC:S59T, HC:V101L
B25: UGX192 (antibody, human IgG1, kappa, V domains shown)
VH: B1 VH with N52F, V101I
VL: B1 VL
notes: also called HC:N52F, HC:V101I

biological target: T1, recombinant human FGF23 (R179Q) (human, UniProt Q9GZV9 25-251); assay: SPR, antibody captured on hIgG chip, rhFGF23(R179Q) analyte
T1 construct: also called rhFGF23(R179Q); hFGF23(R179Q)
T1 sequence (looked up): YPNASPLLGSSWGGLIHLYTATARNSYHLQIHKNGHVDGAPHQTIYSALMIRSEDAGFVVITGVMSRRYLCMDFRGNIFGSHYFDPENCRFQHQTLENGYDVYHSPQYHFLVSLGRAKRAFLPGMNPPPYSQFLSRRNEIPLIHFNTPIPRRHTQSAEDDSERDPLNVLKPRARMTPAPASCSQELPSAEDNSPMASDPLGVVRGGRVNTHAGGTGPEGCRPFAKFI

Binder | Kd [nM] | Ratio (variant antibody KD/burosumab KD) | SA (surface activity) [%] | koff [s⁻¹] | kon [M⁻¹ s⁻¹]
B1 | 0.0208 | 1 | 88.8 | 0.000157 | 7.22e+06

biological target: T1, recombinant human FGF23 (R179Q); assay: as above; remark: another data set of the same source

Binder | Kd | Ratio (variant antibody KD/burosumab KD) | koff | kon | SA (surface activity) [%]
B2 | 0.0504 nM and 0.0703 nM | 0 | 0.000169 s⁻¹ and 0.000204 s⁻¹ | 3.35e+06 M⁻¹ s⁻¹ and 2.9e+06 M⁻¹ s⁻¹ | 
B3 | 0.0176 nM | 1 | 0.000122 s⁻¹ | 6.93e+06 M⁻¹ s⁻¹ | 85
B4 | 0.0348 nM | 1 | 0.000358 s⁻¹ | 1.03e+07 M⁻¹ s⁻¹ | 88.4
B5 | 0.0393 nM | 1 | 0.000266 s⁻¹ | 6.78e+06 M⁻¹ s⁻¹ | 95.7
B6 | 0.202 nM | 0 | 0.000733 s⁻¹ | 3.63e+06 M⁻¹ s⁻¹ | 84.8
B7 | 0.0235 nM | 1 | 0.000181 s⁻¹ | 7.71e+06 M⁻¹ s⁻¹ | 100
B8 | 0.0319 nM | 1 | 0.000161 s⁻¹ | 5.04e+06 M⁻¹ s⁻¹ | 86.5
B9 |  |  |  | 2.63e+06 M⁻¹ s⁻¹ and 2.27e+06 M⁻¹ s⁻¹ | 
B10 | 0.0332 nM | 1 | 0.00017 s⁻¹ | 5.14e+06 M⁻¹ s⁻¹ | 89.9
B11 | 0.0272 nM | 1 | 0.000181 s⁻¹ | 6.65e+06 M⁻¹ s⁻¹ | 91.2
B12 | 0.0255 nM | 1 | 0.000212 s⁻¹ | 8.32e+06 M⁻¹ s⁻¹ | 90.3
B13 | 0.0416 nM | 0 | 0.000262 s⁻¹ | 6.29e+06 M⁻¹ s⁻¹ | 91.2
B14 | 0.112 nM | 0 | 0.000322 s⁻¹ | 2.87e+06 M⁻¹ s⁻¹ | 83.7
B15 | 0.0226 nM and 0.0251 nM | 1 | 0.000224 s⁻¹ and 0.000222 s⁻¹ | 9.91e+06 M⁻¹ s⁻¹ and 8.83e+06 M⁻¹ s⁻¹ | 
B16 | 0.0142 nM and 0.0147 nM and 0.0146 nM | 1 | 8.7e-05 s⁻¹ and 9.61e-05 s⁻¹ and 9.01e-05 s⁻¹ | 6.2e+06 M⁻¹ s⁻¹ (2×) and 6.5e+06 M⁻¹ s⁻¹ | 
B17 | 0.061 nM | 0 | 0.000267 s⁻¹ | 4.38e+06 M⁻¹ s⁻¹ | 84.2
B18 | 0.0986 nM | 0 | 0.000472 s⁻¹ | 4.79e+06 M⁻¹ s⁻¹ | 88.4
B19 | 0.0336 nM | 1 | 0.00019 s⁻¹ | 5.64e+06 M⁻¹ s⁻¹ | 91.9
B20 | 0.0363 nM and 0.0448 nM |  | 0.000175 s⁻¹ and 0.00022 s⁻¹ | 4.82e+06 M⁻¹ s⁻¹ and 4.92e+06 M⁻¹ s⁻¹ | 
B21 | 0.0224 nM | 1 | 0.000196 s⁻¹ | 8.77e+06 M⁻¹ s⁻¹ | 93.1
B22 | 0.0212 nM | 1 | 0.000134 s⁻¹ | 6.33e+06 M⁻¹ s⁻¹ | 85.6
B23 | 0.0183 nM | 1 | 0.000253 s⁻¹ | 1.39e+07 M⁻¹ s⁻¹ | 95.8
B24 | 3.08 nM | 0 | 0.0103 s⁻¹ | 3.35e+06 M⁻¹ s⁻¹ | 92.7
B25 | 20.6 nM | 0 | 0.0236 s⁻¹ | 1.15e+06 M⁻¹ s⁻¹ | 82.3
